Common to all, as to type: cell-based
For assay [1], the system named is Fusarium graminearum. Conditions: concentrations up to 18.5 uM in the absence of NaD1.
Assay [2] relates to Fusarium graminearum. The following applies: F. graminearum.
The subject of assay [3] is Fusarium oxysporum f. sp. vasinfectum (Fov). The assay can be described thus: Growth of Fov with NaD1 and proteinase inhibitors (Example 6). The following applies: 40 h, FIG. 6. The method, then: The inhibitory effects of defensin (NaD1) and proteinase inhibitors on the growth of Fusarium oxysporum f. sp. vasinfectum (Fov) (Australian isolate VCG01111 isolated from cotton and provided by Farming Systems Institute, DPI, Queensland, Australia) were measured essentially as described by Broekaert et al, supra 1990. Spores were isolated from sporulating cultures growing in ½ strength potato dextrose broth (PDB). The Fov culture was grown in ½ PDB for 1-2 weeks at room temperature, before spores were separated from hyphal matter by filtration through sterile tissue paper. The concentration of spores in the filtrate was measured using a hemocytometer. NaD1 and the proteinase inhibitors were prepared as described in Example 4. The conditions used for the fungal growth assay were the same as those described in Example 4. After 40h at 25° C. fungal growth was assessed by measuring optical density at 595 nm (A595).

For assay [4], the system named is Colletotrichum graminicola. The following applies: C. graminicola, 40 h, FIG. 7.

B1: NaCys2: cystatin from Nicotiana alata, bacterially expressed (SEQ ID NO:4) (protein)
chain: MANLGGIREAGGSENSLEINDLARFAVDGHNKKQNALLEFRKVVNVKEQVVAGTMYYITLEATEGGKKKAYEAKVWVKPWQNFKQLEDFKLIGDAASA
modifications: Nicotiana alata (NaCys2)
Take B1: the “effect on hyphal growth” value in the assay with Fusarium graminearum [1] is “no effect on hyphal growth”. Further, in the assay on Fusarium graminearum [2], the “synergy with the petunia defensin PhD1A on growth inhibition” value is listed as “synergistic effect” and the “synergy with the tomato defensin Tomdef2 on growth inhibition” value is “synergistic effect”. Further, the “synergy with NaD1 on growth inhibition” value in assay [3] was “Less, but significant synergy”. Moreover, the “synergy with NaD1 on growth inhibition” value in assay [4] is reported as “synergistic effect”.
